Source: the supplement of paper PMC12042874
± gives the uncertainty stated by the source.

test: amyloid nucleation score (Sup35N fusion, yeast selection) (log enrichment); library NNK1; higher = more nucleation; inactive = no reads after selection
Method in brief: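 Sup35N fusions to peptides of 20 random codons were expressed in psi-negative yeast, induced 24 hours with 100 μM copper sulfate, and grown 7 days at 30°C on medium lacking adenine and uracil. Input and output plasmid inserts were sequenced by Illumina. The nucleation score is the DiMSum log enrichment of output over input reads, centred on the mode score of non-aggregating sequences. Sequences with under 100 input reads were excluded.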

**Q.** For RYSFLANGASSFGCVVLFSL, which amyloid nucleation score is on record?
**A.** 0.503 ± 0.93

**Q.** Which amyloid nucleation score does the source give for DTGLGVCWSAKLGYCVWGSL here?
**A.** 6.61 ± 0.071

**Q.** With YFFGLILY as the substance, how does the amyloid nucleation score read?
**A.** -0.332 ± 0.56

**Q.** For RLLPGFERGVLYYWA, which amyloid nucleation score is on record?
**A.** 0.568 ± 0.43

**Q.** Which amyloid nucleation score does the source give for FQRGKLTASLSMVHSSRVCF here?
**A.** -1.6 ± 2.4

**Q.** For QINLSGVSVDEWLSLWYGVL, which amyloid nucleation score is on record?
**A.** 0.468 ± 0.72

**Q.** With WWGRGVLVWYGCRAKVWTS as the substance, how does the amyloid nucleation score read?
**A.** 0.012 ± 1.6

**Q.** For FVYDFNGKKFLGLSCALYII, which amyloid nucleation score is on record?
**A.** 0.22 ± 1.2

**Q.** For AANSPELVGFSGGPKGCSRG, which amyloid nucleation score is on record?
**A.** -0.137 ± 0.71

**Q.** Which amyloid nucleation score does the source give for GRMAMWYGTPKGGCCHKSLY here?
**A.** inactive

**Q.** For LLRGSCFMCSLLDYALVKEG, which amyloid nucleation score is on record?
**A.** 3.84 ± 0.1

**Q.** Which amyloid nucleation score does the source give for LSGGWEVPQVVAERKARPWI here?
**A.** -0.037 ± 1.7

**Q.** Which amyloid nucleation score does the source give for RLFLSLLMKSRTIMRRKGLV here?
**A.** 2.54 ± 0.15

**Q.** With TCMWMILLFINR as the substance, how does the amyloid nucleation score read?
**A.** 0.608 ± 0.27

**Q.** For ACMRCFGNICSLWSVKGN, which amyloid nucleation score is on record?
**A.** 7.417 ± 0.052

**Q.** For SGVLLINGVA, which amyloid nucleation score is on record?
**A.** 0.699 ± 0.42

**Q.** With FGLEK as the substance, how does the amyloid nucleation score read?
**A.** 1.25 ± 0.64

**Q.** For SNEYLCYYMSTNA, which amyloid nucleation score is on record?
**A.** -0.345 ± 0.39

**Q.** For HVLKGGRAAFVELRGKSHGL, which amyloid nucleation score is on record?
**A.** -0.081 ± 0.96

**Q.** Which amyloid nucleation score does the source give for ILVGCSKSRRLNGGQLLIPS here?
**A.** 0.314 ± 0.45

**Q.** For DGKKYTVMSFSEQSK, which amyloid nucleation score is on record?
**A.** -0.368 ± 1.7

**Q.** Which amyloid nucleation score does the source give for FYSMSGWYSTVKGVCIRTLT here?
**A.** 1.02 ± 0.35

**Q.** For RCYYLGHVHRICGRWGWGPR, which amyloid nucleation score is on record?
**A.** 0.37 ± 0.52

**Q.** For NKYVVETDH, which amyloid nucleation score is on record?
**A.** -0.604 ± 1.1

**Q.** Which amyloid nucleation score does the source give for LVMFSNLCSWFLLF here?
**A.** 0.966 ± 0.62

**Q.** For RGSMSEWNILYVYASIYKGD, which amyloid nucleation score is on record?
**A.** 1.6 ± 0.42

**Q.** With MALMYLMVTRVDLALSL as the substance, how does the amyloid nucleation score read?
**A.** 0.072 ± 0.34

**Q.** Which amyloid nucleation score does the source give for TLTSRVENKFRMVIL here?
**A.** 3.46 ± 0.088

**Q.** With SRPDTQPEEAQ as the substance, how does the amyloid nucleation score read?
**A.** -0.02 ± 0.21

**Q.** Which amyloid nucleation score does the source give for VMKGSRHVRDKRALYYDILR here?
**A.** -0.308 ± 0.59

**Q.** For GFYGRICL, which amyloid nucleation score is on record?
**A.** 0.101 ± 0.46

**Q.** For SWDVAYVSMF, which amyloid nucleation score is on record?
**A.** 0.124 ± 0.6

**Q.** For RTSLNLNIRNTWAKWLGAEF, which amyloid nucleation score is on record?
**A.** 4.29 ± 0.1

**Q.** Which amyloid nucleation score does the source give for PIKVMIFVCNGFRKWHLMQH here?
**A.** 0.268 ± 1.1

**Q.** Which amyloid nucleation score does the source give for GSSTVNL here?
**A.** -0.345 ± 1.7

**Q.** With HTCGIDGLNKRMT as the substance, how does the amyloid nucleation score read?
**A.** -0.791 ± 1.6

**Q.** With TGRCR as the substance, how does the amyloid nucleation score read?
**A.** inactive

**Q.** Which amyloid nucleation score does the source give for QTLGVGSRYVNVNSGLITQL here?
**A.** -0.05 ± 0.29

**Q.** With VRFFM as the substance, how does the amyloid nucleation score read?
**A.** -0.422 ± 0.45

**Q.** With CECHPFHPRVLVYGRYRFNP as the substance, how does the amyloid nucleation score read?
**A.** 0.033 ± 0.38

**Q.** Which amyloid nucleation score does the source give for VLESLAYFPGFNEWCGDMMS here?
**A.** 1.43 ± 0.42

**Q.** With YSFSISVYLLGLSCCCWMGE as the substance, how does the amyloid nucleation score read?
**A.** 6.08 ± 0.064

**Q.** With YGCDGDVFRLIVWDVIAPSE as the substance, how does the amyloid nucleation score read?
**A.** 0.044 ± 0.34

**Q.** For WTYWGSCGGLWSKIFIYFLL, which amyloid nucleation score is on record?
**A.** 3.66 ± 0.078

**Q.** Which amyloid nucleation score does the source give for YDPPTWIHNAMGG here?
**A.** 0.342 ± 0.41

**Q.** Which amyloid nucleation score does the source give for GIAWALKLRLVDAYPGMSMS here?
**A.** 0.168 ± 0.72

**Q.** Which amyloid nucleation score does the source give for AVVKAVVNGRILFYRTREVS here?
**A.** 0.226 ± 0.58

**Q.** For YSRGCTFYAKGELRDNGSYY, which amyloid nucleation score is on record?
**A.** -0.168 ± 0.48

**Q.** For VRFKGMWHKQ, which amyloid nucleation score is on record?
**A.** -1.04 ± 1.1

**Q.** For VHTWYHCLSAEMSVMSILDL, which amyloid nucleation score is on record?
**A.** -0.39 ± 1.7

**Q.** For LSTTWDFESMGVRVSREYPG, which amyloid nucleation score is on record?
**A.** 0.351 ± 0.58

**Q.** Which amyloid nucleation score does the source give for MVFSLSCFKSFTCYTYMCTA here?
**A.** 7.15 ± 0.055

**Q.** For ILTFQSCRRFACKAFMFRRR, which amyloid nucleation score is on record?
**A.** 2.07 ± 0.16

**Q.** Which amyloid nucleation score does the source give for KVFRLILGGVSNKYT here?
**A.** 0.228 ± 0.64

**Q.** For FAYEAWLMR, which amyloid nucleation score is on record?
**A.** -0.077 ± 0.27

**Q.** For VFSKLDTLFTVSMTLRPMWP, which amyloid nucleation score is on record?
**A.** 0.566 ± 0.79

**Q.** For WENTSRKYVAANDCARMRLG, which amyloid nucleation score is on record?
**A.** -0.281 ± 0.41

**Q.** Which amyloid nucleation score does the source give for IMRSMSGWFGFVMLFDAS here?
**A.** -0.598 ± 0.79

**Q.** For DASTEITGLAPGFSTTVGRM, which amyloid nucleation score is on record?
**A.** -0.536 ± 0.81

**Q.** For SRVSLRRQCYVRVNGLCLYI, which amyloid nucleation score is on record?
**A.** 1.84 ± 0.3

**Q.** With SANRTHNWY as the substance, how does the amyloid nucleation score read?
**A.** -0.451 ± 0.44

**Q.** For WFWMYGKGKESQSVVNGGGT, which amyloid nucleation score is on record?
**A.** 0.861 ± 0.53

**Q.** Which amyloid nucleation score does the source give for NKRTLLVVY here?
**A.** -1.19 ± 0.81

**Q.** For TSMVNI, which amyloid nucleation score is on record?
**A.** 0.084 ± 0.88

**Q.** Which amyloid nucleation score does the source give for RYSGFLSVSLL here?
**A.** -0.087 ± 1

**Q.** For FYTISFLAIIATENIFCSSS, which amyloid nucleation score is on record?
**A.** 4.42 ± 0.053

**Q.** With TPRYVLLVC as the substance, how does the amyloid nucleation score read?
**A.** -0.983 ± 2.4

**Q.** With GKFSKDKILLVSYHKAF as the substance, how does the amyloid nucleation score read?
**A.** 0.886 ± 0.39

**Q.** Which amyloid nucleation score does the source give for VPSLRYYLYGSFFVI here?
**A.** -2.49 ± 1.7

**Q.** Which amyloid nucleation score does the source give for DSCLEGM here?
**A.** 1.5 ± 0.66

**Q.** Which amyloid nucleation score does the source give for VRARVLSKTIMMTTYERHLV here?
**A.** -0.691 ± 1.7

**Q.** For PLYKAVLTDK, which amyloid nucleation score is on record?
**A.** inactive

**Q.** With TYFFKLNP as the substance, how does the amyloid nucleation score read?
**A.** -1.07 ± 1.4

**Q.** Which amyloid nucleation score does the source give for MCDCLPPCDSGWNFFEWGWE here?
**A.** -0.131 ± 0.69

**Q.** Which amyloid nucleation score does the source give for FVWIWYCPIYHCEVLARSPR here?
**A.** -0.614 ± 0.83

**Q.** Which amyloid nucleation score does the source give for LGWVYLHMWLGTIYYLFFVI here?
**A.** -1.14 ± 1

**Q.** With IMSYLKTLSPVIAMRTIERP as the substance, how does the amyloid nucleation score read?
**A.** 0.821 ± 0.5

**Q.** For VRWDPVRRIWFALR, which amyloid nucleation score is on record?
**A.** inactive

**Q.** Which amyloid nucleation score does the source give for LVVSWKLVPSSSTYCGTMSL here?
**A.** inactive

**Q.** For QIIEPRARENGRINMMMVGG, which amyloid nucleation score is on record?
**A.** 0.481 ± 0.61

**Q.** With RSGIILLVGVS as the substance, how does the amyloid nucleation score read?
**A.** -0.655 ± 0.68

**Q.** Which amyloid nucleation score does the source give for IVLKVIINVCHYLTGGSTFA here?
**A.** 6.475 ± 0.062

**Q.** Which amyloid nucleation score does the source give for PYKLFHVVSCCRTQGDNVAK here?
**A.** -0.813 ± 0.49

**Q.** For DSLIDRSKVLKQTLYSTYWL, which amyloid nucleation score is on record?
**A.** -0.12 ± 0.48

**Q.** Which amyloid nucleation score does the source give for AGYVWAKSSKDVKFYVLDM here?
**A.** 2.85 ± 0.17

**Q.** Which amyloid nucleation score does the source give for LLYRMKVFADVGGDVLKSEG here?
**A.** inactive

**Q.** With DLFICSSARAVNKIFRVLHA as the substance, how does the amyloid nucleation score read?
**A.** 0.511 ± 0.91
